Results: the supplement of paper PMC7877785
± gives the uncertainty stated by the source.

Assay: self-splicing fitness, log relative to wild type (ln ratio); higher = more splicing; Tetrahymena group I intron in knt gene, E. coli kanamycin selection, DiMSum; sequences stand for … in CUCUCU…GGAGGGAAAAGUUAUCAGGCAUGCACCUGGUAGCUAGUCUUUAAACCAAUAGAUUGCAUCGGUUUAAAAGGCAAGACCGUCAAAUUGCGGGAAAGGGGUCAACAGCCGUUCAGUACCAAGUCUCAGGGGAAACUUUGAGAUGGCCUUGCAAAGGGUAUGGUAAUAAGCUGACGGACAUGGUCCUAACCACGCAGCCAAGUCCUAAGUCAACAGAUCUUCUGUUGAUAUGGAUGCAGUUCACAGACUAAAUGUCGGUCGGGGAAGAUGUAUUCUUCUCAUAAGAUAUAGUCGGACCUCUCCUUAAUGGGAGCUAGCGGAUGAAGUGAUGCAACACUGGAGCCGCUGGGAACUAAUUUGUAUGCGAAAGUAUAUUGAUUAGUUUUGGAGUACUCGUGGUCG
Procedure, shortened: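 DiMSum derived fitness as the error-weighted combination of fold changes across replicates, kanamycin versus no kanamycin, normalised to wild type. E. coli BL21(DE3) held the library, which randomised all eight P1ex-region intron nucleotides within the knt kanamycin-resistance gene on pET-22b(+). Six replicate transformations grew overnight at 37°C or 30°C on LB agar with or without 25 μg/mL kanamycin, also containing 100 μg/mL carbenicillin, 50 μM IPTG and 0.2% rhamnose, and pooled colonies were amplicon-sequenced on an Illumina HiSeq 2500.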

Sequence	self-splicing fitness (ln) (30 °C)	self-splicing fitness (ln) (37 °C)
CAUUAGCAAUAUUACGCAAG	-1.45 ± 0.1	-0.813 ± 0.13
CAUUAGCAAUAUUACGCAUG	-4.08 ± 0.46	-3.16 ± 0.4
CAUUAGCAAUAUUACGCGCC	-3.41 ± 0.32	-2.26 ± 0.35
CAUUAGCAAUAUUACGCGGA	-2.93 ± 0.23	-1 ± 0.14
CAUUAGCAAUAUUACGCUAC	-3.99 ± 0.4	-2.13 ± 0.46
CAUUAGCAAUAUUACGGAGC	-2.94 ± 0.4	-2.04 ± 0.23
CAUUAGCAAUAUUACGGAUU	-3.12 ± 0.2	-1.23 ± 0.21
CAUUAGCAAUAUUACGGGGG	-2.52 ± 0.21	-1.19 ± 0.15
CAUUAGCAAUAUUACGGGUU	-2.27 ± 0.11	-0.829 ± 0.12
CAUUAGCAAUAUUACGGUGU	-3.92 ± 0.2	-3.76 ± 0.23
CAUUAGCAAUAUUACGGUUA	-2.35 ± 0.28	-0.486 ± 0.17
CAUUAGCAAUAUUACGUAGA	-0.475 ± 0.11	-1.51 ± 0.2
CAUUAGCAAUAUUACGUCGC	-2.38 ± 0.32	
CAUUAGCAAUAUUACGUGAU	-3.57 ± 0.12	-1.87 ± 0.1
CAUUAGCAAUAUUACGUGGG	-3.46 ± 0.17	-2.76 ± 0.21
CAUUAGCAAUAUUACGUUAG	-0.927 ± 0.092	-0.609 ± 0.1
CAUUAGCAAUAUUACGUUGG	-2.05 ± 0.085	-1.03 ± 0.1
CAUUAGCAAUAUUACGUUUC	-2.39 ± 0.33	-2.2 ± 0.32
CCAAAGCAAUAUUACGAAGG	-3.61 ± 0.15	-2.9 ± 0.3
CCAAAGCAAUAUUACGACAA	-2.42 ± 0.27	-2.54 ± 0.28
CCAAAGCAAUAUUACGACUC	-2.53 ± 0.27	-2.03 ± 0.43
CCAAAGCAAUAUUACGAGAA	-3.52 ± 0.44	-3 ± 0.35
CCAAAGCAAUAUUACGAGAC	-3.26 ± 0.24	-2.31 ± 0.23
CCAAAGCAAUAUUACGAUCU	-2.43 ± 0.14	-2.97 ± 0.35

Sequence	self-splicing fitness (ln) (30 °C)	self-splicing fitness (ln) (37 °C)
CCAAAGCAAUAUUACGCAAU	-4.04 ± 0.24	-1.46 ± 0.18
CCAAAGCAAUAUUACGCAGU	-3.71 ± 0.21	-1.64 ± 0.16
CCAAAGCAAUAUUACGCCAU	-3.42 ± 0.17	-1.88 ± 0.17
CCAAAGCAAUAUUACGCUCU	-3.95 ± 0.27	-2.95 ± 0.23
CCAAAGCAAUAUUACGCUGC	-3.03 ± 0.17	-1.8 ± 0.18
CCAAAGCAAUAUUACGCUUA	-3.86 ± 0.24	-3.12 ± 0.22
CCAAAGCAAUAUUACGGACA	-2.84 ± 0.2	-2.86 ± 0.25
CCAAAGCAAUAUUACGGCCA	-2.38 ± 0.24	-2.76 ± 0.33
CCAAAGCAAUAUUACGGCGG	-3.8 ± 0.15	-2.48 ± 0.16
CCAAAGCAAUAUUACGGGCA	-3.47 ± 0.19	-2.86 ± 0.2
CCAAAGCAAUAUUACGGGUG	-1.01 ± 0.053	-0.233 ± 0.085
CCAAAGCAAUAUUACGGUAG	-1.99 ± 0.056	-0.962 ± 0.066
CCAAAGCAAUAUUACGGUUU	-3.21 ± 0.12	-2.34 ± 0.15
CCAAAGCAAUAUUACGUAUG	-0.512 ± 0.059	-0.574 ± 0.093
CCAAAGCAAUAUUACGUCGG	-3.29 ± 0.18	-2.23 ± 0.2
CCAAAGCAAUAUUACGUCUA	-3.06 ± 0.23	-2.06 ± 0.21
CCAAAGCAAUAUUACGUGCA	-2.81 ± 0.18	-2.9 ± 0.23
CCAAAGCAAUAUUACGUUCA	-2.59 ± 0.17	-3.38 ± 0.33
CCAAAGCAAUAUUACGUUGC	-3.4 ± 0.15	-2.12 ± 0.17
CCAAAGCAAUAUUACGUUUU	-3.91 ± 0.14	-2.75 ± 0.17
CCACAGCAAUAUUACGAACA	-2.78 ± 0.24	-2.33 ± 0.29
CCACAGCAAUAUUACGAAUA	-2.57 ± 0.15	-2.59 ± 0.19
CCACAGCAAUAUUACGAAUC	-2.71 ± 0.18	-2.3 ± 0.3
